According to patent US11028172 (LEPU BIOPHARMA, dated 2021):
Where a chain is given by its changes, count along the chain named. Like-named read-outs stand apart in the source and are kept apart here.

Experiments:
human TIGIT-His protein [1] = target: T1, human TIGIT-His protein (human, UniProt Q495A1 22-141); assay: SPR (Biacore) affinity ranking, human TIGIT-His
T1 construct: Recombinant protein; also called human TIGIT-his tag; hTIGIT-His
T1 sequence (looked up): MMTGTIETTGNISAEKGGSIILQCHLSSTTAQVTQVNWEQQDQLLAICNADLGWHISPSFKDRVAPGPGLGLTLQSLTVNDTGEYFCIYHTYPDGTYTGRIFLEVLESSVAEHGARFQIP

[2] = target: T2, biotin-labeled human TIGIT protein (human, UniProt Q495A1 22-141, biotin-labeled (sites not given)); assay: ELISA blocking assay: CD155-hFc coated, biotin-labeled human TIGIT, antibody titrated
T2 construct: also called recombinant human TIGIT
T2 sequence (looked up): T1 sequence (looked up)
Protocol: To evaluate the blocking effects of Hu02 and Hu06 on recombinant human TIGIT to bind to its receptor CD155, an ELISA based receptor blocking assay was used.
Briefly, microtiter plates were coated with human CD155-hFc protein at 5 µg/ml in PBS, 100 µl/well at 4° C. overnight, then blocked with 150 µl/well of 1% BSA. 50 µl biotin-labeled human TIGIT protein and 3-fold dilutions of Hu02 and Hu06 antibodies starting from 10 µg/ml at 50 µl were added to each well and incubated for 1 hour at 37° C. The plates were washed with PBS/Tween and then incubated with Streptavidin-HRP for 10 mins at 37° C. After washing, the plates were developed with TMB substrate and analyzed by spectrophotometer at OD 450 nm.

human TIGIT-His protein [3] = target: T1, human TIGIT-His protein; assay: SPR (Biacore T200) full kinetics, antibody captured on Protein A chip, hTIGIT-His as analyte
Protocol: The binding of the humanized antibodies to recombinant TIGIT protein (human TIGIT-his tag) was tested by BIACORE™ using a capture method. Hu02 and Hu06 mAbs were captured using Protein A chip. A serial dilution of human TIGIT-his tag protein was injected over captured antibody for 2 mins at a flow rate of 30 µl/min. The antigen was allowed to dissociate for 1800 s. All the experiment were carried out on a Biacore T200.

human TIGIT-His protein [4] = target: T1, human TIGIT-His protein; assay: ELISA, plate coated with human TIGIT-His, anti-human IgG-HRP, OD 450nm; unit taken from the axis Log[Conc.]/ng/ml
Protocol: (§1) To evaluate the antigen binding activity, Hu02 and Hu06 were subjected to ELISA test. Briefly, microtiter plates were coated with human TIGIT-his protein at 0.5 µg/ml in PBS, 100 µl/well at 4° C. overnight, then blocked with 150 µl/well of 1% BSA. Three-fold dilutions of humanized antibodies starting from 3 µg/ml were added to each well and incubated for 1 hour at 37° C. The plates were washed with PBS/Tween and then incubated with Goat-anti-human IgG antibody conjugated with Horse Radish Peroxidase (HRP) for 0.5 hour at 37° C. After washing, the plates were developed with TMB substrate and analyzed by spectrophotometer at OD 450 nm.

human TIGIT-His protein [5] = target: T1, human TIGIT-His protein; assay: as above; remark: listed apart in the source
Protocol: as §1, with “the humanized antibodies” for “Hu02 and Hu06”, “30 mins” for “0.5 hour”

[6] = target: T3, human TIGIT expressed on cells (human, UniProt Q495A1 22-244); assay: cell-based or functional assay
T3 sequence (looked up): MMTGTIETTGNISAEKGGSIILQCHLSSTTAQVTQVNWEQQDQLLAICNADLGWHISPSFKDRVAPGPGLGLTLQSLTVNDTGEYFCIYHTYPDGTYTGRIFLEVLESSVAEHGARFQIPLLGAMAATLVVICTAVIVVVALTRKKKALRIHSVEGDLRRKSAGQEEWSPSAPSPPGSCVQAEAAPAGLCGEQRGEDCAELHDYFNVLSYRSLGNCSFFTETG

human TIGIT-His protein [7] = target: T1, human TIGIT-His protein; assay: ELISA, plate coated with human TIGIT-His, anti-human IgG-HRP, OD 450nm; unit taken from the axis Log[Conc.]/ng/ml; remark: listed apart in the source
Protocol: To evaluate the antigen binding activity, LP010-02 (Hu02-human IgG1 Fc) and control antibody Tiragolumab (RG6058, Roche), which contains the same IgG1 Fc, were subjected to ELISA testing. Briefly, microtiter plates were coated with human TIGIT-his protein at 0.5 µg/ml in PBS, 100 µl/well at 4° C. overnight, then blocked with 150 µl/well of 1% BSA. Three-fold dilutions of humanized antibodies starting from 3 µg/ml were added to each well and incubated for 1 hour at 37° C. The plates were washed with PBS/Tween and then incubated with Goat-anti-human IgG antibody conjugated with Horse Radish Peroxidase (HRP) for 0.5 hour at 37° C. After washing, the plates were developed with the TMB substrate and analyzed by spectrophotometer at OD 450 nm.

[8] = target: T3, human TIGIT expressed on cells; assay: flow cytometry on human TIGIT overexpressing cells, Alexa Fluor 647 anti-human IgG; unit from the x axis
Protocol: (§2) To evaluate the antigen binding property, the humanized antibodies were analyzed for their binding to human TIGIT overexpressed mammalian cells by FACS. Briefly, human TIGIT cells were firstly incubated with 3-fold serious diluted humanized antibodies starting at 5 µg/ml at 4° C. for 40 mins.

[9] = target: T3, human TIGIT expressed on cells; assay: cell-based or functional assay; remark: listed apart in the source
[10] = target: T3, human TIGIT expressed on cells; assay: flow cytometry (FACS) on human TIGIT overexpressing mammalian cells
Protocol: as §2

B1: 76D12B10-Hu06 (antibody, V domains shown)
VH: EVQLQESGPGLVKPSETLSLTCAVSGYSISSGYDWHWIRQPPGKGLEWIGFIRDSGSTVYNPSLKGRVTISHDTSKNQFSLKLSSVTAADTAVYYCARGLFWYFDVWGQGTTVTVSS
VL: DIQMTQSPSSLSASVGDRVTITCRTSENIFSYLAWYQQKPGKVPKLLIHNTKTLAEGVPSRFSGSGSGTDFTLTISSLQPEDVATYYCQHHYGNPLTFGQGTKLEIK
notes: Humanized, VH.V1 + VK.V1
Human TIGIT-His protein [1]
  Kd: 0.0136 nM
  koff: 0.000101 s⁻¹
  kon: 7.43e+06 M⁻¹ s⁻¹
[2]
  IC50: 0.866 µg/mL
Human TIGIT-His protein [3]
  Kd: 0.0416 nM
  koff: 7.18e-05 s⁻¹
  kon: 1.72e+06 M⁻¹ s⁻¹
Human TIGIT-His protein [4]
  EC50: 0.00934 µg/mL
Human TIGIT-His protein [5]
  EC50: 0.0104 µg/mL
[6]
  NFAT luciferase production, EC50: 1.67 nM

B2: 76D12B10-Hu07 (antibody, V domains shown)
VH: B1 VH with V68I
VL: B1 VL
notes: Humanized, VH.V2 + VK.V1
Human TIGIT-His protein [1]
  Kd: 0.0186 nM
  koff: 8.93e-05 s⁻¹
  kon: 4.8e+06 M⁻¹ s⁻¹
Human TIGIT-His protein [5]
  EC50: 0.0107 µg/mL

B3: 76D12B10-Hu13 (antibody, V domains shown)
VH: B1 VH with I49M, V68I
VL: B1 VL with I48V
notes: Humanized, VH.V3 + VK.V2
Human TIGIT-His protein [1]
  Kd: 0.0281 nM
  koff: 0.000128 s⁻¹
  kon: 4.54e+06 M⁻¹ s⁻¹
Human TIGIT-His protein [5]
  EC50: 0.0121 µg/mL

B4: 76D12B10-Hu04 (antibody, V domains shown)
VH: B1 VH with V24A, S30T, I49M, V68I
VL: B1 VL with H49Y
notes: Humanized, VH.V4 + VK.V0
Human TIGIT-His protein [1]
  Kd: 0.0191 nM
  koff: 9.85e-05 s⁻¹
  kon: 5.15e+06 M⁻¹ s⁻¹
Human TIGIT-His protein [5]
  EC50: 0.00996 µg/mL

B5: LP010-02 (Hu02-human IgG1 Fc) (antibody, V domains shown)
VH: B1 VH with V68I
VL: B1 VL with H49Y
Human TIGIT-His protein [7]
  EC50: 0.00654 µg/mL
[2]
  IC50: 0.531 µg/mL
[8]
  LogEC50: 1.52 Log[Conc.]/ng/ml
[9]
  EC50, NFAT luciferase reporter (RLU), TIGIT-CD226-NFAT effector cells with Raji-CD155 target cells: 1.95 nM
  LogEC50, NFAT luciferase reporter (RLU), TIGIT-CD226-NFAT effector cells with Raji-CD155 target cells: 0.29 Log[Conc.]/nM
[10]
  EC50: 0.0328 µg/mL

B6: 76D12B10-Hu12 (antibody, V domains shown)
VH: B1 VH with V68I
VL: B1 VL with I48V
notes: Humanized, VH.V2 + VK.V2
Human TIGIT-His protein [1]
  Kd: 0.0244 nM
  koff: 0.00014 s⁻¹
  kon: 5.75e+06 M⁻¹ s⁻¹
Human TIGIT-His protein [5]
  EC50: 0.0111 µg/mL

B7: 76D12B10-Hu01 (antibody, V domains shown)
VH: B1 VH
VL: B1 VL with H49Y
notes: Humanized, VH.V1 + VK.V0
Human TIGIT-His protein [1]
  Kd: 0.0701 nM
  koff: 0.000104 s⁻¹
  kon: 1.48e+06 M⁻¹ s⁻¹
Human TIGIT-His protein [5]
  EC50: 0.00989 µg/mL

B8: 76D12B10-Hu05 (antibody, V domains shown)
VH: B1 VH with V24A, S30T, G45K, I49M, V68I, Y95F
VL: B1 VL with H49Y
notes: Humanized, VH.V5 + VK.V0
Human TIGIT-His protein [1]
  Kd: 0.0165 nM
  koff: 9.75e-05 s⁻¹
  kon: 5.92e+06 M⁻¹ s⁻¹
Human TIGIT-His protein [5]
  EC50: 0.0101 µg/mL

B9: 76D12B10-Hu11 (antibody, V domains shown)
VH: B1 VH
VL: B1 VL with I48V
notes: Humanized, VH.V1 + VK.V2
Human TIGIT-His protein [1]
  Kd: 0.0255 nM
  koff: 9.21e-05 s⁻¹
  kon: 3.62e+06 M⁻¹ s⁻¹
Human TIGIT-His protein [5]
  EC50: 0.00709 µg/mL
